According to patent US11219221B2 (FarmHannong Co., Ltd., priority 2017, dated 2022):

What follows are molecules tested on CyPPO16 (assay: PPO enzyme activity of MBP-fused CyPPO16 wild type and variants). Settings: PPO enzyme activity relative to wild type; MBP-fused protein, 50 μM protoporphyrinogen IX, room temperature, 30 min.
Assay type: biochemical, Spirulina subsalsa
Procedure: Thus, PPO proteins of wild type and variants were expressed as fused to MBP and were used for experiments.
The following process for purification of PPO protein was performed in a 4° C. cold room. Amylose resin (NEB) was packed to 1.5×15 cm column (Bio-Rad, Econo Columns 1.5×15 cm, glass chromatography column, max. vol), and the obtained protein extracts were loaded to the column at a flow rate of 0.2 ml/min. The column was washed with 3 column volumes of buffer and the presence of protein in the washing solution was examined. When the protein was no longer detected, the washing procedure was terminated. Then, the MBP-PPO protein was eluted with approximately 2 column volumes of buffer containing 20 mM maltose. The protein concentration of each eluent was determined and the elution was stopped when the protein was no longer detected. Ten microliter of each fraction was investigated for protein quantification and SDS-PAGE analysis. The highly pure fractions of PPO protein variants were used for the enzyme assay.
Since protoporphyrinogen IX, a substrate of PPO protein, was not commercially available, it was chemically synthesized in the laboratory. Overall process was performed in dark under nitrogen stream. […] of protoporphyrin IX was dissolved in 20 ml of 20% (v/v) EtOH, and stirred under dark condition for 30 minutes. The obtained protoporphyrin IX solution was put into a 15 ml screw tube in an amount of 800 μl, and flushed with nitrogen gas for 5 minutes. To this, 1.5 g of sodium amalgam was added and vigorously shaken for 2 minutes. The lid was opened to exhaust hydrogen gas in the tube. Thereafter, the lid was closed and incubated for 3 minutes. The protoporphyrinogen IX solution was filtered using syringe and cellulose membrane filter. […] To determine the enzyme activity of PPO protein, a reaction mixture was prepared with the following composition (based on 10 ml): 50 mM Tris-Cl (pH 8.0); 50 mM NaCl; 0.04% (v/v) Tween 20; 40 mM glucose (0.072 g); 5 units glucose oxidase (16.6 mg); and 10 units catalase (1 μl).
Hundred and eighty microliters of a reaction mixture containing the purified PPO protein were placed in 96 well plates and 20 μl of […] were added. […] The reaction proceeded at room temperature for 30 min and the fluorescence of protoporphyrin IX was measured using Microplate reader (Sense, Hidex) (excitation: 405 nm; emission: 633 nm). […] To this, 2.7 N HCl was added, and the absorbance at 408 nm was measured. A standard curve was generated using standard protoporphyrin IX, and PPO activity was measured by calibration of protoporphyrin IX using the standard curve of protoporphyrin IX.
Activities of variants were presented relatively compared to that of wild type.

Row | Molecule | Activity (%)
1 | V305M: CyPPO16 variant (protein, Synthetic (Protoporphyrinogen IX oxidase (CyPPO16) of Spirulina subsalsa), CyPPO16 variant) MLDSLIVGAGISGLSAAHTLQKQQTQFLVTESQGRVGGNITTNRQGDYLWEEGPNSFAPTEDLLRLAVEVGLKEDLVFADRRLPRFVYWNQQLHPVPMSPPAALKTQLLSEAGKWRAALGALGFVGGLVGREEETVRQFFTRHLGTEVTERLVAPFVSGVYAGDVDQLSAQAAFRRVFEFAQLGGGLAAGGILARRQAPPKAPPDPSLPETKTGQLGSFREGLEMLPRAIASQLGDRLKLQWRLTHLEITPQQTYLAHFNTPDGPQQIATRTLILTTPAPITADLLKPLTPALHGVLKEIYYPPMACVVLAYPRAASARPLEGFGHLIPRNQGIRTLGTIWSSCLFPGRTPEGEHLLTNFIGGATDPGIAQLDPEEIAQAVHQDLCKILIRPEFTPKILAVRLWKQAIPQYTLGHLQRLATLEQELSKFPGLHILANYTDGVALGDCVKRGVAVAQKIRSRE | 72%
2 | F360M: CyPPO16 variant (protein, Synthetic (Protoporphyrinogen IX oxidase (CyPPO16) of Spirulina subsalsa), CyPPO16 variant) MLDSLIVGAGISGLSAAHTLQKQQTQFLVTESQGRVGGNITTNRQGDYLWEEGPNSFAPTEDLLRLAVEVGLKEDLVFADRRLPRFVYWNQQLHPVPMSPPAALKTQLLSEAGKWRAALGALGFVGGLVGREEETVRQFFTRHLGTEVTERLVAPFVSGVYAGDVDQLSAQAAFRRVFEFAQLGGGLAAGGILARRQAPPKAPPDPSLPETKTGQLGSFREGLEMLPRAIASQLGDRLKLQWRLTHLEITPQQTYLAHFNTPDGPQQIATRTLILTTPAPITADLLKPLTPALHGVLKEIYYPPVACVVLAYPRAASARPLEGFGHLIPRNQGIRTLGTIWSSCLFPGRTPEGEHLLTNMIGGATDPGIAQLDPEEIAQAVHQDLCKILIRPEFTPKILAVRLWKQAIPQYTLGHLQRLATLEQELSKFPGLHILANYTDGVALGDCVKRGVAVAQKIRSRE | 83%
3 | F360V: CyPPO16 variant (protein, Synthetic (Protoporphyrinogen IX oxidase (CyPPO16) of Spirulina subsalsa), CyPPO16 variant) MLDSLIVGAGISGLSAAHTLQKQQTQFLVTESQGRVGGNITTNRQGDYLWEEGPNSFAPTEDLLRLAVEVGLKEDLVFADRRLPRFVYWNQQLHPVPMSPPAALKTQLLSEAGKWRAALGALGFVGGLVGREEETVRQFFTRHLGTEVTERLVAPFVSGVYAGDVDQLSAQAAFRRVFEFAQLGGGLAAGGILARRQAPPKAPPDPSLPETKTGQLGSFREGLEMLPRAIASQLGDRLKLQWRLTHLEITPQQTYLAHFNTPDGPQQIATRTLILTTPAPITADLLKPLTPALHGVLKEIYYPPVACVVLAYPRAASARPLEGFGHLIPRNQGIRTLGTIWSSCLFPGRTPEGEHLLTNVIGGATDPGIAQLDPEEIAQAVHQDLCKILIRPEFTPKILAVRLWKQAIPQYTLGHLQRLATLEQELSKFPGLHILANYTDGVALGDCVKRGVAVAQKIRSRE | 69%
4 | F324V: CyPPO16 variant (protein, Synthetic (Protoporphyrinogen IX oxidase (CyPPO16) of Spirulina subsalsa), CyPPO16 variant) MLDSLIVGAGISGLSAAHTLQKQQTQFLVTESQGRVGGNITTNRQGDYLWEEGPNSFAPTEDLLRLAVEVGLKEDLVFADRRLPRFVYWNQQLHPVPMSPPAALKTQLLSEAGKWRAALGALGFVGGLVGREEETVRQFFTRHLGTEVTERLVAPFVSGVYAGDVDQLSAQAAFRRVFEFAQLGGGLAAGGILARRQAPPKAPPDPSLPETKTGQLGSFREGLEMLPRAIASQLGDRLKLQWRLTHLEITPQQTYLAHFNTPDGPQQIATRTLILTTPAPITADLLKPLTPALHGVLKEIYYPPVACVVLAYPRAASARPLEGVGHLIPRNQGIRTLGTIWSSCLFPGRTPEGEHLLTNFIGGATDPGIAQLDPEEIAQAVHQDLCKILIRPEFTPKILAVRLWKQAIPQYTLGHLQRLATLEQELSKFPGLHILANYTDGVALGDCVKRGVAVAQKIRSRE | 23%
5 | F360T: CyPPO16 variant (protein, Synthetic (Protoporphyrinogen IX oxidase (CyPPO16) of Spirulina subsalsa), CyPPO16 variant) MLDSLIVGAGISGLSAAHTLQKQQTQFLVTESQGRVGGNITTNRQGDYLWEEGPNSFAPTEDLLRLAVEVGLKEDLVFADRRLPRFVYWNQQLHPVPMSPPAALKTQLLSEAGKWRAALGALGFVGGLVGREEETVRQFFTRHLGTEVTERLVAPFVSGVYAGDVDQLSAQAAFRRVFEFAQLGGGLAAGGILARRQAPPKAPPDPSLPETKTGQLGSFREGLEMLPRAIASQLGDRLKLQWRLTHLEITPQQTYLAHFNTPDGPQQIATRTLILTTPAPITADLLKPLTPALHGVLKEIYYPPVACVVLAYPRAASARPLEGFGHLIPRNQGIRTLGTIWSSCLFPGRTPEGEHLLTNTIGGATDPGIAQLDPEEIAQAVHQDLCKILIRPEFTPKILAVRLWKQAIPQYTLGHLQRLATLEQELSKFPGLHILANYTDGVALGDCVKRGVAVAQKIRSRE | 25%
6 | R85A: CyPPO16 variant (protein, Synthetic (Protoporphyrinogen IX oxidase (CyPPO16) of Spirulina subsalsa), CyPPO16 variant) MLDSLIVGAGISGLSAAHTLQKQQTQFLVTESQGRVGGNITTNRQGDYLWEEGPNSFAPTEDLLRLAVEVGLKEDLVFADRRLPAFVYWNQQLHPVPMSPPAALKTQLLSEAGKWRAALGALGFVGGLVGREEETVRQFFTRHLGTEVTERLVAPFVSGVYAGDVDQLSAQAAFRRVFEFAQLGGGLAAGGILARRQAPPKAPPDPSLPETKTGQLGSFREGLEMLPRAIASQLGDRLKLQWRLTHLEITPQQTYLAHFNTPDGPQQIATRTLILTTPAPITADLLKPLTPALHGVLKEIYYPPVACVVLAYPRAASARPLEGFGHLIPRNQGIRTLGTIWSSCLFPGRTPEGEHLLTNFIGGATDPGIAQLDPEEIAQAVHQDLCKILIRPEFTPKILAVRLWKQAIPQYTLGHLQRLATLEQELSKFPGLHILANYTDGVALGDCVKRGVAVAQKIRSRE | 94%
7 | L327T: CyPPO16 variant (protein, Synthetic (Protoporphyrinogen IX oxidase (CyPPO16) of Spirulina subsalsa), CyPPO16 variant) MLDSLIVGAGISGLSAAHTLQKQQTQFLVTESQGRVGGNITTNRQGDYLWEEGPNSFAPTEDLLRLAVEVGLKEDLVFADRRLPRFVYWNQQLHPVPMSPPAALKTQLLSEAGKWRAALGALGFVGGLVGREEETVRQFFTRHLGTEVTERLVAPFVSGVYAGDVDQLSAQAAFRRVFEFAQLGGGLAAGGILARRQAPPKAPPDPSLPETKTGQLGSFREGLEMLPRAIASQLGDRLKLQWRLTHLEITPQQTYLAHFNTPDGPQQIATRTLILTTPAPITADLLKPLTPALHGVLKEIYYPPVACVVLAYPRAASARPLEGFGHTIPRNQGIRTLGTIWSSCLFPGRTPEGEHLLTNFIGGATDPGIAQLDPEEIAQAVHQDLCKILIRPEFTPKILAVRLWKQAIPQYTLGHLQRLATLEQELSKFPGLHILANYTDGVALGDCVKRGVAVAQKIRSRE | 68%
8 | R85A + V160C + A162C + V305M + L327T + F360M: CyPPO16 variant (protein, Synthetic (Protoporphyrinogen IX oxidase (CyPPO16) of Spirulina subsalsa), CyPPO16 variant) MLDSLIVGAGISGLSAAHTLQKQQTQFLVTESQGRVGGNITTNRQGDYLWEEGPNSFAPTEDLLRLAVEVGLKEDLVFADRRLPAFVYWNQQLHPVPMSPPAALKTQLLSEAGKWRAALGALGFVGGLVGREEETVRQFFTRHLGTEVTERLVAPFVSGCYCGDVDQLSAQAAFRRVFEFAQLGGGLAAGGILARRQAPPKAPPDPSLPETKTGQLGSFREGLEMLPRAIASQLGDRLKLQWRLTHLEITPQQTYLAHFNTPDGPQQIATRTLILTTPAPITADLLKPLTPALHGVLKEIYYPPMACVVLAYPRAASARPLEGFGHTIPRNQGIRTLGTIWSSCLFPGRTPEGEHLLTNMIGGATDPGIAQLDPEEIAQAVHQDLCKILIRPEFTPKILAVRLWKQAIPQYTLGHLQRLATLEQELSKFPGLHILANYTDGVALGDCVKRGVAVAQKIRSRE | 13%
